Laboratory results from patent publication US20070020688A1, “Measurement method using biosensor” (FUJI PHOTO FILM CO., LTD., priority 2005, published 2007).

Legend:
[1] = target: T1, trypsin (Bos taurus, UniProt P00760); assay: Compound binding amount on trypsin-immobilized hydrogel-coated chip by surface plasmon resonance; conditions: for Compound binding amount (RU): compound 0.01 mM, 3 minutes
T1 construct: purchased Worthington
T1 sequence (P00760 24-246): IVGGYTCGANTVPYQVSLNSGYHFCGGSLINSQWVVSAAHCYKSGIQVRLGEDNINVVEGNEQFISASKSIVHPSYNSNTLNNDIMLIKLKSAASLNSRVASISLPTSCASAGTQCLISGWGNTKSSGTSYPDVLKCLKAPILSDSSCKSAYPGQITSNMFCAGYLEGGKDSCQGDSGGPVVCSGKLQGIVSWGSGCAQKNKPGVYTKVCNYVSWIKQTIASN
Protocol: Trypsin (manufactured by Worthington) was immobilized on the hydrogel-coated measurement chip produced in (2) above. Measurement was carried out using the surface plasmon resonance measurement device described in (1) above.
A mixed solution of 1-ethyl-2,3-dimethylaminopropylcarbodiimide (400 mM) and N-hydroxysuccinimide (100 mM) was added to a hydrogel-coated chip, followed by leaving at rest for 20 minutes. Thereafter, the resultant product was washed with a 10 mM phosphate buffer. Subsequently, the aforementioned trypsin solution was added thereto, followed by leaving at rest for the period of time shown in Table 1. Thereafter, the resultant product was subjected to a primary washing with a 10 mM phosphate buffer, and then subjected to a secondary washing with the washing solution shown in Table 1. Thereafter, the resultant product was further washed with a 10 mM phosphate buffer. It is to be noted that it has been known that if such a secondary washing is carried out with 10 mM NaOH, non-specifically adsorbed proteins are washed out, and a baseline drift thereby becomes stable during interaction measurement.
By the aforementioned operations, trypsin was immobilized on the surface of the measurement chip via a covalent bond. The amount by which resonance signals (RU value) obtained before the addition of trypsin and after washing had changed was defined as the immobilized amount of trypsin (RU value).
The measurement chip was washed with a 10 mM phosphate buffer, and it was then equipped in the surface plasmon resonance device of the present example. Thereafter, leupeptin (0.01 mM; phosphate buffer pH 7.4), the following kinase inhibitor, and an amphipathic compound (0.01 mM; phosphate buffer pH 7.4) were added thereto, followed by leaving at rest for 3 minutes. The amount by which resonance signals (RU value) had changed was defined as the binding amount of the compound.

[2] = target: T1, trypsin; assay: Enzyme activity of immobilized trypsin, fluorescence of decomposed Bz-Arg-MCA substrate; assay type: biochemical; conditions: for Enzyme activity (fluorescence intensity): 0.1 mM Bz-Arg-MCA, 120 minutes
Protocol: Using the chip on which trypsin had been immobilized as described in (1) above, the enzyme activity of trypsin was measured. […] Specifically, a substrate specific to trypsin (benzoyl-L-arginine-4-methylcoumarin-7-amide (hereinafter referred to as Bz-Arg-MCA); Peptide Institute, Inc.) was allowed to react with trypsin, and fluorescence in the decomposed product was measured.
The 10 mM phosphate buffer contained in the measurement chip was removed, and 0.1 mM Bz-Arg-MCA was then added thereto. The reaction was then carried out for 120 minutes.
Fluorescence measurement was carried out regarding fluorescence for each of the aforementioned reaction times, using the BMGLabTechnologies FLUOstar measurement device (excitation: 380 nm; and emission: 460 nm).

Compound	Compound binding amount (RU) ([1]; Experiment No. 1: trypsin immobilized in phosphate buffer (pH 7.4), 10 mg/ml, 1 hr, secondary washing phosphate buffer (pH 7.4))	Compound binding amount (RU) ([1]; Experiment No. 2: trypsin immobilized in phosphate buffer (pH 7.4), 2 mg/ml, 1 hr, secondary washing phosphate buffer (pH 7.4))	Compound binding amount (RU) ([1]; Experiment No. 3: trypsin immobilized in phosphate buffer (pH 7.4), 2 mg/ml, 1 hr, secondary washing 10 mM NaOH)	Compound binding amount (RU) ([1]; Experiment No. 4: trypsin immobilized in acetate buffer (pH 5.0), 0.1 mg/ml, 0.2 hr, secondary washing phosphate buffer (pH 7.4))	Binding to the surface, in words ([1]; surface of experiment No. 2)	Activity value (enzyme activity/immobilized amount) ([2]; Experiment No. 1)	Enzyme activity (fluorescence intensity) ([2]; Experiment No. 1: phosphate buffer (pH 7.4), 10 mg/ml, 1 hr, washing phosphate buffer (pH 7.4))	Activity value (enzyme activity/immobilized amount) ([2]; Experiment No. 2)	Enzyme activity (fluorescence intensity) ([2]; Experiment No. 2: phosphate buffer (pH 7.4), 2 mg/ml, 1 hr, washing phosphate buffer (pH 7.4))	Activity value (enzyme activity/immobilized amount) ([2]; Experiment No. 3)	Enzyme activity (fluorescence intensity) ([2]; Experiment No. 3: phosphate buffer (pH 7.4), 2 mg/ml, 1 hr, washing 10 mM NaOH)	Activity value (enzyme activity/immobilized amount) ([2]; Experiment No. 4)	Enzyme activity (fluorescence intensity) ([2]; Experiment No. 4: acetate buffer (pH 5.0), 0.1 mg/ml, 0.2 hr, washing phosphate buffer (pH 7.4))
CC(=O)N[C@@H](CC(C)C)C(=O)N[C@@H](CC(C)C)C(=O)N[C@H](C=O)CCCNC(=N)N [Leupeptin, leupeptin]	25 RU	19 RU	8 RU	16 RU	binds to the surface	–	–	–	–	–	–	–	–
Trypsin	–	–	–	–	–	0.055	230	0.238	615	0.160	370	0.008	40
